Data set [1] deals with T1, TIA1 (Homo sapiens (cDNA from HEK293 cells), UniProt P31483 1-386).
T1 sequence: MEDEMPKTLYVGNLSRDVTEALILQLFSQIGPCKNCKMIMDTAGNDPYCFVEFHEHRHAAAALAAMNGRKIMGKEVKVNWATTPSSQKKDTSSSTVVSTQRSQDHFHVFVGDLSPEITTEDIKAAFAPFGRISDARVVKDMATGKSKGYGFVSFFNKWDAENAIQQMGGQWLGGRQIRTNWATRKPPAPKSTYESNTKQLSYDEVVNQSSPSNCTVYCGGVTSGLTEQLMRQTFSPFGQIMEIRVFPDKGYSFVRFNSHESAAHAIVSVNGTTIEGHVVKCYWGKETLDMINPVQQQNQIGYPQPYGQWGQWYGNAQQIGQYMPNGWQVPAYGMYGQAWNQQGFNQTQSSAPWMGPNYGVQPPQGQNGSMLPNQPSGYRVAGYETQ
The data set can be described thus: EMSA. A general note: Mobility shift assays separate free from complexed probe on a gel.

Data set [2] deals with T2, TIAL1 (Homo sapiens (cDNA from HEK293 cells), UniProt Q01085 1-375).
T2 sequence: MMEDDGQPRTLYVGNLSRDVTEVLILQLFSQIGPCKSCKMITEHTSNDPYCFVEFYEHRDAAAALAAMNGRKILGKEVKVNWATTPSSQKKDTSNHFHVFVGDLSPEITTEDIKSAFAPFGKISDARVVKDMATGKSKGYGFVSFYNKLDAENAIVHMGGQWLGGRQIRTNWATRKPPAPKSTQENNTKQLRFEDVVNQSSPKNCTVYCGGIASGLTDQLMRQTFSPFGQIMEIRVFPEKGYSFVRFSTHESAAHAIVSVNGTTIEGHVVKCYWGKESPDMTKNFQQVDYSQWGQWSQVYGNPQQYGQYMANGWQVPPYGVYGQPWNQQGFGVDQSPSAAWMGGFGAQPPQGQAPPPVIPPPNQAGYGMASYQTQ
The data set can be described thus: EMSA.

The source of these data is publication PMC5816707.

On to AAAAAAAAAAAAAAAAAA (ssRNA) [poly(A)18], for which the binding result in data set [1] and in data set [2] was “no binding” in each case.
